The values below come from US20120178908A1 (Novo Nordisk, published 2012).

To fix the notation:
B1: Fab 0023-LC-L6-TF;VH-CH1-HPC4 (other)
light chain-linker-TF: DIVVSQSPSSLAVSAGEKVTMSCKSSQSLLNSRTRKNYLAWYQQKPGQSPKLLIYWASTRESGVPDRFTGSGSGTDFTLTISSVQAEDLAVYYCKQSYNLLTFGAGTKLELKRTVAAPSVFIFPPSDEQLKSGTASVVCLLNNFYPREAKVQWKVDNALQSGNSQESVTEQDSKDSTYSLSSTLTLSKADYEKHKVYACEVTHQGLSSPVTKSFNRGECGGGGSGGGGSGSGGGGSGGGGSGGGGSSGTTNTVAAYNLTWKSTNFKTILEWEPKPVNQVYTVQISTKSGDWKSKCFYTTDTECDLTDEIVKDVKQTYLARVFSYPAGNVESTGSAGEPLYENSPEFTPYLETNLGQPTIQSFEQVGTKVNVTVEDERTLVRRNNTFLSLRDVFGKDLIYTLYYWKSSSSGKKTAKTNTNEFLIDVDKGENYCFSVQAVIPSRTVNRKSTDSPVECMGQEKGEFRE
VH-CH1-HPC4: EVRLVESGGGLVQPGGSLKLSCATSGFTFSDYFMYWIRQTPEKRLEWVAYISNGGDSSSYPDTVKGRFTISRDNAKNTLYLQMSRLKSEDTAMYYCATNKNWDDYYDMDYWGQGTSVTVSSASTKGPSVFPLAPCSRSTSESTAALGCLVKDYFPEPVTVSWNSGALTSGVHTFPAVLQSSGLYSLSSVVTVPSSSLGTKTYTCNVDHKPSNTKVDKRVESKEDQVDPRLIDGK
B2: Fab 0023-LC-L9-TF;VH-CH1-HPC4 (other)
light chain-linker-TF: DIVVSQSPSSLAVSAGEKVTMSCKSSQSLLNSRTRKNYLAWYQQKPGQSPKLLIYWASTRESGVPDRFTGSGSGTDFTLTISSVQAEDLAVYYCKQSYNLLTFGAGTKLELKRTVAAPSVFIFPPSDEQLKSGTASVVCLLNNFYPREAKVQWKVDNALQSGNSQESVTEQDSKDSTYSLSSTLTLSKADYEKHKVYACEVTHQGLSSPVTKSFNRGECGGGGSGGGGSGGGGSGGGGSGGGGSGSGGGGSGGGGSGGGGSSGTTNTVAAYNLTWKSTNFKTILEWEPKPVNQVYTVQISTKSGDWKSKCFYTTDTECDLTDEIVKDVKQTYLARVFSYPAGNVESTGSAGEPLYENSPEFTPYLETNLGQPTIQSFEQVGTKVNVTVEDERTLVRRNNTFLSLRDVFGKDLIYTLYYWKSSSSGKKTAKTNTNEFLIDVDKGENYCFSVQAVIPSRTVNRKSTDSPVECMGQEKGEFRE
VH-CH1-HPC4: B1 VH-CH1-HPC4
B3: Fab 0023-LC-L8-TF;VH-CH1-HPC4 (other)
light chain-linker-TF: DIVVSQSPSSLAVSAGEKVTMSCKSSQSLLNSRTRKNYLAWYQQKPGQSPKLLIYWASTRESGVPDRFTGSGSGTDFTLTISSVQAEDLAVYYCKQSYNLLTFGAGTKLELKRTVAAPSVFIFPPSDEQLKSGTASVVCLLNNFYPREAKVQWKVDNALQSGNSQESVTEQDSKDSTYSLSSTLTLSKADYEKHKVYACEVTHQGLSSPVTKSFNRGECGGGGSGGGGSGGGGSGGGGSGSGGGGSGGGGSGGGGSSGTTNTVAAYNLTWKSTNFKTILEWEPKPVNQVYTVQISTKSGDWKSKCFYTTDTECDLTDEIVKDVKQTYLARVFSYPAGNVESTGSAGEPLYENSPEFTPYLETNLGQPTIQSFEQVGTKVNVTVEDERTLVRRNNTFLSLRDVFGKDLIYTLYYWKSSSSGKKTAKTNTNEFLIDVDKGENYCFSVQAVIPSRTVNRKSTDSPVECMGQEKGEFRE
VH-CH1-HPC4: B1 VH-CH1-HPC4
B4: Fab 0023-LC-L7-TF;VH-CH1-HPC4 (other)
light chain-linker-TF: DIVVSQSPSSLAVSAGEKVTMSCKSSQSLLNSRTRKNYLAWYQQKPGQSPKLLIYWASTRESGVPDRFTGSGSGTDFTLTISSVQAEDLAVYYCKQSYNLLTFGAGTKLELKRTVAAPSVFIFPPSDEQLKSGTASVVCLLNNFYPREAKVQWKVDNALQSGNSQESVTEQDSKDSTYSLSSTLTLSKADYEKHKVYACEVTHQGLSSPVTKSFNRGECGGGGSGGGGSGGGGSGSGGGGSGGGGSGGGGSSGTTNTVAAYNLTWKSTNFKTILEWEPKPVNQVYTVQISTKSGDWKSKCFYTTDTECDLTDEIVKDVKQTYLARVFSYPAGNVESTGSAGEPLYENSPEFTPYLETNLGQPTIQSFEQVGTKVNVTVEDERTLVRRNNTFLSLRDVFGKDLIYTLYYWKSSSSGKKTAKTNTNEFLIDVDKGENYCFSVQAVIPSRTVNRKSTDSPVECMGQEKGEFRE
VH-CH1-HPC4: B1 VH-CH1-HPC4
B5: Fab 0052-LC-L4a-TF;VH-CH1-HPC4 (other)
light chain-linker-TF: DIQMTQTTSSLSASLGDRVTISCRASQDISNYLNWYQQKPDGTVKLLIFYTSRLHSGVPSRFSGSGSGTDYSLTISNLEPEDIATYYCQQDTKLPYTFGGGTKLEMKRTVAAPSVFIFPPSDEQLKSGTASVVCLLNNFYPREAKVQWKVDNALQSGNSQESVTEQDSKDSTYSLSSTLTLSKADYEKHKVYACEVTHQGLSSPVTKSFNRGECGSGGGGSGGGGSGGGGSSGTTNTVAAYNLTWKSTNFKTILEWEPKPVNQVYTVQISTKSGDWKSKCFYTTDTECDLTDEIVKDVKQTYLARVFSYPAGNVESTGSAGEPLYENSPEFTPYLETNLGQPTIQSFEQVGTKVNVTVEDERTLVRRNNTFLSLRDVFGKDLIYTLYYWKSSSSGKKTAKTNTNEFLIDVDKGENYCFSVQAVIPSRTVNRKSTDSPVECMGQEKGEFRE
VH-CH1-HPC4: QVQLQQSGAEPMKPGASVKISCKATGYTFSSHWIEWIKQRPGHGLEWIGEILPGSGNTNYNEKFKGKATFTADTSSNTAYMQLSSLTSEDSAVYCCARGYYGLNYDWYFDVWGAGTTVTVSSASTKGPSVFPLAPCSRSTSESTAALGCLVKDYFPEPVTVSWNSGALTSGVHTFPAVLQSSGLYSLSSVVTVPSSSLGTKTYTCNVDHKPSNTKVDKRVESKEDQVDPRLIDGK
B6: Fab 0023-VH-CH1-L4a-TF;LC-HPC4 (other)
VH-CH1-linker-TF: EVRLVESGGGLVQPGGSLKLSCATSGFTFSDYFMYWIRQTPEKRLEWVAYISNGGDSSSYPDTVKGRFTISRDNAKNTLYLQMSRLKSEDTAMYYCATNKNWDDYYDMDYWGQGTSVTVSSASTKGPSVFPLAPCSRSTSESTAALGCLVKDYFPEPVTVSWNSGALTSGVHTFPAVLQSSGLYSLSSVVTVPSSSLGTKTYTCNVDHKPSNTKVDKRVESKGSGGGGSGGGGSGGGGSSGTTNTVAAYNLTWKSTNFKTILEWEPKPVNQVYTVQISTKSGDWKSKCFYTTDTECDLTDEIVKDVKQTYLARVFSYPAGNVESTGSAGEPLYENSPEFTPYLETNLGQPTIQSFEQVGTKVNVTVEDERTLVRRNNTFLSLRDVFGKDLIYTLYYWKSSSSGKKTAKTNTNEFLIDVDKGENYCFSVQAVIPSRTVNRKSTDSPVECMGQEKGEFRE
light chain-HPC4: DIVVSQSPSSLAVSAGEKVTMSCKSSQSLLNSRTRKNYLAWYQQKPGQSPKLLIYWASTRESGVPDRFTGSGSGTDFTLTISSVQAEDLAVYYCKQSYNLLTFGAGTKLELKRTVAAPSVFIFPPSDEQLKSGTASVVCLLNNFYPREAKVQWKVDNALQSGNSQESVTEQDSKDSTYSLSSTLTLSKADYEKHKVYACEVTHQGLSSPVTKSFNRGECEDQVDPRLIDGK
B7: Fab 0051-VH-CH1-L4a-TF;LC-HPC4 (other)
VH-CH1-linker-TF: QVQLEQSGAELVRPGVSVKISCKGSGYTFTDYSMHWVKQSHAKSLEWIGVISTYYGDVRYNQKFKGKATMTVDKSSSTAYMALARLTSEDSAIYYCARAPMITTGAWFAYWGQGTLVTVSAASTKGPSVFPLAPCSRSTSESTAALGCLVKDYFPEPVTVSWNSGALTSGVHTFPAVLQSSGLYSLSSVVTVPSSSLGTKTYTCNVDHKPSNTKVDKRVESKGSGGGGSGGGGSGGGGSSGTTNTVAAYNLTWKSTNFKTILEWEPKPVNQVYTVQISTKSGDWKSKCFYTTDTECDLTDEIVKDVKQTYLARVFSYPAGNVESTGSAGEPLYENSPEFTPYLETNLGQPTIQSFEQVGTKVNVTVEDERTLVRRNNTFLSLRDVFGKDLIYTLYYWKSSSSGKKTAKTNTNEFLIDVDKGENYCFSVQAVIPSRTVNRKSTDSPVECMGQEKGEFRE
light chain-HPC4: SIVMTQTPKFLLVSAGDRVTITCKASQSVSNDVAWYQQKPGQSPKLLINYASSRYTGIPDRFTGSGYGTDFTFTISTVQAEDLAVYFCQQDYSSPYTFGGGTKLEIERTVAAPSVFIFPPSDEQLKSGTASVVCLLNNFYPREAKVQWKVDNALQSGNSQESVTEQDSKDSTYSLSSTLTLSKADYEKHKVYACEVTHQGLSSPVTKSFNRGECEDQVDPRLIDGK

The first experiment concerns the target T1, TLT-1 18-188 relipidated in 20:80 PS:PC vesicles (human, UniProt Q86YW5 18-188).
T1 sequence: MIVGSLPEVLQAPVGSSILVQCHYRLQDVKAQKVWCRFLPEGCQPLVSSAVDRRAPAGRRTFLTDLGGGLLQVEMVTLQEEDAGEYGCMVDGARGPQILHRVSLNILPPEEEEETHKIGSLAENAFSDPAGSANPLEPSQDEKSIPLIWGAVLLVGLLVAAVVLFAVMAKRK
Nature of the experiment: cell-based or functional assay.
In the case of B1, the “FVII-mediated FXa generation % Activity lipidated TLT-1” value stood at 27% and the “FVIIa-mediated FXa generation % Activity lipidated TLT-1” value came to 44%.
For B2, in that order: 24% and 38%.
B3: the “FVII-mediated FXa generation % Activity lipidated TLT-1” value worked out at 24% and the “FVIIa-mediated FXa generation % Activity lipidated TLT-1” value amounted to 35%.
Regarding B4, the “FVII-mediated FXa generation % Activity lipidated TLT-1” value amounted to 25% and the “FVIIa-mediated FXa generation % Activity lipidated TLT-1” value amounted to 40%.
On to B5, for which the “FVII-mediated FXa generation % Activity lipidated TLT-1” value worked out at 9% and the “FVIIa-mediated FXa generation % Activity lipidated TLT-1” value came to 29%.
Regarding B6, the “FVII-mediated FXa generation % Activity lipidated TLT-1” value is 26% and the “FVIIa-mediated FXa generation % Activity lipidated TLT-1” value turned out to be 53%.
In the case of B7, the “FVII-mediated FXa generation % Activity lipidated TLT-1” value turned out to be 22% and the “FVIIa-mediated FXa generation % Activity lipidated TLT-1” value was determined as 48%.

The target in a further experiment is T2, TLT-1 receptor on the surface of activated human platelets (human, UniProt Q86YW5 16-311).
T2 sequence: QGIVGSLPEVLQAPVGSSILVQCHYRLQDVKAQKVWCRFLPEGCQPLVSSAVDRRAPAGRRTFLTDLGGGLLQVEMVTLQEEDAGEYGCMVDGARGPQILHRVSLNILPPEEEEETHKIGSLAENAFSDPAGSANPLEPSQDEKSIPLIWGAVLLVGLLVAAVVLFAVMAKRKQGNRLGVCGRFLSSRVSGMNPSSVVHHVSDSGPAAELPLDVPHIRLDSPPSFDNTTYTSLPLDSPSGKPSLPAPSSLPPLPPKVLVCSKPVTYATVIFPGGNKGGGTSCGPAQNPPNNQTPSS
Kind of experiment: cell-based or functional assay.
In the case of B1, the “FVII-mediated FXa generation % Activity activated plts (n 1)” value is 20% and the “FVIIa-mediated FXa generation % Activity activated plts (n 1)” value was 45%.
For B2, the “FVII-mediated FXa generation % Activity activated plts (n 1)” value was determined as 14% and the “FVIIa-mediated FXa generation % Activity activated plts (n 1)” value is 32%.
The like results for B3 were, in that order, 16% and 33%.
With B4, the “FVII-mediated FXa generation % Activity activated plts (n 1)” value was 17% and the “FVIIa-mediated FXa generation % Activity activated plts (n 1)” value was 35%.
In the case of B5, the “FVIIa-mediated FXa generation % Activity activated plts (n 1)” value was 20%.
For B6, the “FVII-mediated FXa generation % Activity activated plts (n 1)” value came out at 14% and the “FVIIa-mediated FXa generation % Activity activated plts (n 1)” value was 45%.
Consider B7, for which the “FVII-mediated FXa generation % Activity activated plts (n 1)” value came out at 43% and the “FVIIa-mediated FXa generation % Activity activated plts (n 1)” value is 72%.
